In patent US20140087995A1 (published 2014):
Numbered stars: 1 amine (or outer) side, 2 acyl side, 3 side chain; on linkers, the order of the positions; unused ones are H or OH. Bridge positions count the residues as written; N and C are the ends. Side chains are listed from the residue outwards. Ends that are not written are not given here. * marks the point of attachment. C20 diacid = O=C(O)CCCCCCCCCCCCCCCCCCC(=O)*; γGlu = O=C(O)[C@H](CCC(=O)[*:2])N[*:1]

T1: rat calcitonin receptor (rat, UniProt P32214 25-516)
T1 construct: whole, on cells; Cell membranes of transiently transfected BHK tk'ts 13 cells (Assay VIII); also called rCTR; rCT
T1 sequence (looked up): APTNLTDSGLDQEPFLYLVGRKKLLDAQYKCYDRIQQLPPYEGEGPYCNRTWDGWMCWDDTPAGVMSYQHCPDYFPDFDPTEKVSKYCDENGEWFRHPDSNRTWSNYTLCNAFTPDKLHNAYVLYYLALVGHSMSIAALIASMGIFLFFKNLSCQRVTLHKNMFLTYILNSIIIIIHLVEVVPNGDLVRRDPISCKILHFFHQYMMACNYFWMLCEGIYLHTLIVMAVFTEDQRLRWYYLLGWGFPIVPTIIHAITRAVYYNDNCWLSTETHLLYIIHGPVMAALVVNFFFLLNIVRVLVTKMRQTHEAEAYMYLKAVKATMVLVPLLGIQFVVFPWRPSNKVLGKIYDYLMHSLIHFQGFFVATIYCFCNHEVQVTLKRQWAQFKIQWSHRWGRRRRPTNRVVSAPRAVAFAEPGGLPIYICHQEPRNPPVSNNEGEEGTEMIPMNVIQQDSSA

T2: human calcitonin receptor (human, UniProt P30988 25-474)
T2 construct: whole, on cells; Cell membranes of a stably transfected BHK cell line (Assay VII); also called hCTR; hCT
T2 sequence (looked up): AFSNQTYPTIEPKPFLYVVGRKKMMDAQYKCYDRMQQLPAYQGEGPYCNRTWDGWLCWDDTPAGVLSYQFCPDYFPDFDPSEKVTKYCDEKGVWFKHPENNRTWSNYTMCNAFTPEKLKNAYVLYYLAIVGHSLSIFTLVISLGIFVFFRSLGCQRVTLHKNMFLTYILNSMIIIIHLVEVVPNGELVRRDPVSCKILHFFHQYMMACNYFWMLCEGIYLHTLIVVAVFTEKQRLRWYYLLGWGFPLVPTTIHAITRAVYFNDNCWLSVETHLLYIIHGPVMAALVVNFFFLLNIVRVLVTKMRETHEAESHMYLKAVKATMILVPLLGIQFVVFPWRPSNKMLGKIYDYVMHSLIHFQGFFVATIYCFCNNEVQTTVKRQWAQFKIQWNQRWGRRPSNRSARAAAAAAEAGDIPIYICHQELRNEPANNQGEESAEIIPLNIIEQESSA

T3: rat amylin receptor (rat calcitonin receptor + rat RAMP 3) (rat, UniProt P32214 25-516; Q9JJ73 23-147)
T3 construct: whole, on cells; Cell membranes of transiently transfected BHK tk'ts 13 cells (Assay VI); also called rAmylin-R; rat amylin 3(a) receptor
T3 sequence (looked up) 1: T1 sequence (looked up)
T3 sequence (looked up) 2: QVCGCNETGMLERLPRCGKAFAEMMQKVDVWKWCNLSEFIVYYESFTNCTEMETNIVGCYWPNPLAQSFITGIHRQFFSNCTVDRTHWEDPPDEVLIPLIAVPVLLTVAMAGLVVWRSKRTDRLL

B1: N^ε1-[(4S)-4-carboxy-4-(19-carboxynonadecanoylamino)butanoyl]-[Arg17,Pro21,Pro27,Glu35]-h-amylin (peptide)
peptide: K([γGlu-C20 diacid])CNTATCATQRLANFLRHSSPNFGAIPSSTNVGSETY-NH2
modifications: disulfide 2-7; N-terminus assumed
SMILES: CC[C@H](C)[C@H](NC(=O)[C@H](C)NC(=O)CNC(=O)[C@H](Cc1ccccc1)NC(=O)[C@H](CC(N)=O)NC(=O)[C@@H]1CCCN1C(=O)[C@H](CO)NC(=O)[C@H](CO)NC(=O)[C@H](Cc1c[nH]cn1)NC(=O)[C@H](CCCNC(=N)N)NC(=O)[C@H](CC(C)C)NC(=O)[C@H](Cc1ccccc1)NC(=O)[C@H](CC(N)=O)NC(=O)[C@H](C)NC(=O)[C@H](CC(C)C)NC(=O)[C@H](CCCNC(=N)N)NC(=O)[C@H](CCC(N)=O)NC(=O)[C@@H](NC(=O)[C@H](C)NC(=O)[C@@H]1CSSC[C@H](NC(=O)[C@@H](N)CCCCNC(=O)CC[C@H](NC(=O)CCCCCCCCCCCCCCCCCCC(=O)O)C(=O)O)C(=O)N[C@@H](CC(N)=O)C(=O)N[C@@H]([C@@H](C)O)C(=O)N[C@@H](C)C(=O)N[C@@H]([C@@H](C)O)C(=O)N1)[C@@H](C)O)C(=O)N1CCC[C@H]1C(=O)N[C@@H](CO)C(=O)N[C@@H](CO)C(=O)N[C@H](C(=O)N[C@@H](CC(N)=O)C(=O)N[C@H](C(=O)NCC(=O)N[C@@H](CO)C(=O)N[C@@H](CCC(=O)O)C(=O)N[C@H](C(=O)N[C@@H](Cc1ccc(O)cc1)C(N)=O)[C@@H](C)O)C(C)C)[C@@H](C)O
notes: Acylated analogue of human amylin; also called compound 27
B2: N^ε1-[(4S)-4-carboxy-4-[[(4S)-4-carboxy-4-(19-carboxynonadecanoylamino)butanoyl]amino]butanoyl]-[Asp14,Arg17,Pro21,Pro27,Asp35]-h-amylin (peptide)
peptide: K([γGlu-γGlu-C20 diacid])CNTATCATQRLADFLRHSSPNFGAIPSSTNVGSDTY-NH2
modifications: disulfide 2-7; N-terminus assumed
SMILES: CC[C@H](C)[C@H](NC(=O)[C@H](C)NC(=O)CNC(=O)[C@H](Cc1ccccc1)NC(=O)[C@H](CC(N)=O)NC(=O)[C@@H]1CCCN1C(=O)[C@H](CO)NC(=O)[C@H](CO)NC(=O)[C@H](Cc1c[nH]cn1)NC(=O)[C@H](CCCNC(=N)N)NC(=O)[C@H](CC(C)C)NC(=O)[C@H](Cc1ccccc1)NC(=O)[C@H](CC(=O)O)NC(=O)[C@H](C)NC(=O)[C@H](CC(C)C)NC(=O)[C@H](CCCNC(=N)N)NC(=O)[C@H](CCC(N)=O)NC(=O)[C@@H](NC(=O)[C@H](C)NC(=O)[C@@H]1CSSC[C@H](NC(=O)[C@@H](N)CCCCNC(=O)CC[C@H](NC(=O)CC[C@H](NC(=O)CCCCCCCCCCCCCCCCCCC(=O)O)C(=O)O)C(=O)O)C(=O)N[C@@H](CC(N)=O)C(=O)N[C@@H]([C@@H](C)O)C(=O)N[C@@H](C)C(=O)N[C@@H]([C@@H](C)O)C(=O)N1)[C@@H](C)O)C(=O)N1CCC[C@H]1C(=O)N[C@@H](CO)C(=O)N[C@@H](CO)C(=O)N[C@H](C(=O)N[C@@H](CC(N)=O)C(=O)N[C@H](C(=O)NCC(=O)N[C@@H](CO)C(=O)N[C@@H](CC(=O)O)C(=O)N[C@H](C(=O)N[C@@H](Cc1ccc(O)cc1)C(N)=O)[C@@H](C)O)C(C)C)[C@@H](C)O
notes: Acylated analogue of human amylin; also called compound 2
B3: N^ε1-[(4S)-4-carboxy-4-(19-carboxynonadecanoylamino)butanoyl]-[Arg17,Pro21,Pro27,Lys35]-h-amylin (peptide)
peptide: K([γGlu-C20 diacid])CNTATCATQRLANFLRHSSPNFGAIPSSTNVGSKTY-NH2
modifications: disulfide 2-7; N-terminus assumed
SMILES: CC[C@H](C)[C@H](NC(=O)[C@H](C)NC(=O)CNC(=O)[C@H](Cc1ccccc1)NC(=O)[C@H](CC(N)=O)NC(=O)[C@@H]1CCCN1C(=O)[C@H](CO)NC(=O)[C@H](CO)NC(=O)[C@H](Cc1c[nH]cn1)NC(=O)[C@H](CCCNC(=N)N)NC(=O)[C@H](CC(C)C)NC(=O)[C@H](Cc1ccccc1)NC(=O)[C@H](CC(N)=O)NC(=O)[C@H](C)NC(=O)[C@H](CC(C)C)NC(=O)[C@H](CCCNC(=N)N)NC(=O)[C@H](CCC(N)=O)NC(=O)[C@@H](NC(=O)[C@H](C)NC(=O)[C@@H]1CSSC[C@H](NC(=O)[C@@H](N)CCCCNC(=O)CC[C@H](NC(=O)CCCCCCCCCCCCCCCCCCC(=O)O)C(=O)O)C(=O)N[C@@H](CC(N)=O)C(=O)N[C@@H]([C@@H](C)O)C(=O)N[C@@H](C)C(=O)N[C@@H]([C@@H](C)O)C(=O)N1)[C@@H](C)O)C(=O)N1CCC[C@H]1C(=O)N[C@@H](CO)C(=O)N[C@@H](CO)C(=O)N[C@H](C(=O)N[C@@H](CC(N)=O)C(=O)N[C@H](C(=O)NCC(=O)N[C@@H](CO)C(=O)N[C@@H](CCCCN)C(=O)N[C@H](C(=O)N[C@@H](Cc1ccc(O)cc1)C(N)=O)[C@@H](C)O)C(C)C)[C@@H](C)O
notes: Acylated analogue of human amylin; also called compound 35
B4: N^ε1-[(4S)-4-carboxy-4-[[(4S)-4-carboxy-4-(19-carboxynonadecanoylamino)butanoyl]amino]butanoyl]-[Asp14,Arg17,Pro21,Pro26,Asp35]-h-amylin (peptide)
peptide: K([γGlu-γGlu-C20 diacid])CNTATCATQRLADFLRHSSPNFGAPLSSTNVGSDTY-NH2
modifications: disulfide 2-7; N-terminus assumed
SMILES: CC(C)C[C@H](NC(=O)[C@H](CCCNC(=N)N)NC(=O)[C@H](CCC(N)=O)NC(=O)[C@@H](NC(=O)[C@H](C)NC(=O)[C@@H]1CSSC[C@H](NC(=O)[C@@H](N)CCCCNC(=O)CC[C@H](NC(=O)CC[C@H](NC(=O)CCCCCCCCCCCCCCCCCCC(=O)O)C(=O)O)C(=O)O)C(=O)N[C@@H](CC(N)=O)C(=O)N[C@@H]([C@@H](C)O)C(=O)N[C@@H](C)C(=O)N[C@@H]([C@@H](C)O)C(=O)N1)[C@@H](C)O)C(=O)N[C@@H](C)C(=O)N[C@@H](CC(=O)O)C(=O)N[C@@H](Cc1ccccc1)C(=O)N[C@@H](CC(C)C)C(=O)N[C@@H](CCCNC(=N)N)C(=O)N[C@@H](Cc1c[nH]cn1)C(=O)N[C@@H](CO)C(=O)N[C@@H](CO)C(=O)N1CCC[C@H]1C(=O)N[C@@H](CC(N)=O)C(=O)N[C@@H](Cc1ccccc1)C(=O)NCC(=O)N[C@@H](C)C(=O)N1CCC[C@H]1C(=O)N[C@@H](CC(C)C)C(=O)N[C@@H](CO)C(=O)N[C@@H](CO)C(=O)N[C@H](C(=O)N[C@@H](CC(N)=O)C(=O)N[C@H](C(=O)NCC(=O)N[C@@H](CO)C(=O)N[C@@H](CC(=O)O)C(=O)N[C@H](C(=O)N[C@@H](Cc1ccc(O)cc1)C(N)=O)[C@@H](C)O)C(C)C)[C@@H](C)O
notes: Acylated analogue of human amylin; also called compound 1

What follows are binders tested against T1, rat calcitonin receptor (assay: ratio IC50 rat calcitonin receptor / IC50 rat amylin receptor).

Q: How did the “Ratio rCT/rAmylin binding” value turn out when B1 was run?
A: 147

Q: For B2, which “Ratio rCT/rAmylin binding” value is on record?
A: 366

Q: For B3, which “Ratio rCT/rAmylin binding” value is on record?
A: 65.1

Q: How did the “Ratio rCT/rAmylin binding” value turn out when B4 was run?
A: 104

The binders below were run against T2, human calcitonin receptor (assay: ratio IC50 human calcitonin receptor / IC50 human amylin receptor).
Method: The resulting pellet was resuspended, homogenized and centrifuged (20.000 rpm, 15 min) in a buffer containing 20 mM Na-HEPES and 0.1 mM EDTA (pH 7.4, buffer 2). The resulting pellet was resuspended in buffer 2 and protein concentration was measured (BCA protein Assay, Pierce). The homogenate was kept cold during the whole procedure. The membranes were kept at −80° C. until use. The assay was performed in a 384 well Optiplate (PerkinElmer) in a total volume of 40 ul. Membranes were mixed with SPA beads. Final concentration of membranes 35 ng/μL final and SPA beads was 0.05 mg/well. Test-compounds were dissolved in DMSO and further diluted in assay buffer (50 mM Hepes, pH 7.4, 1 mM CaCl2, 5 mM MgCl₂, 0.1% OA and 0.02% Tween20). […] The final mixture was incubated with shaking at 400 rpm for 120 min at 25° C. prior to centrifugation (1500 rpm, 10 min). Samples were analyzed on TopCounter™ (Packard). The IC₅₀ was calculated using (one site binding competition analysis) GraphPad Prism5 as a measure of receptor affinity.
Membranes were prepared in the following way; the cells were rinsed with PBS and incubated with Versene for approximately 5 min before harvesting. The cells were flushed with PBS and the cell-suspension was centrifuged for 5 min at 1000 rpm. Cells were homogenized (Ultrathurrax) in a buffer containing 20 mM Na-HEPES and 10 mM EDTA (pH 7.4) and centrifuged at 20.000 rpm for 15 min. The resulting pellet was resuspended, homogenized and centrifuged (20.000 rpm, 15 min) in a buffer containing 20 mM Na-HEPES and 0.1 mM EDTA (pH 7.4, buffer 2). The resulting pellet was resuspended in buffer 2 and protein concentration was measured (BCA protein Assay, Pierce). The homogenate was kept cold during the whole procedure. The membranes were kept at −80° C. until use. Assay was performed in a 384 well Optiplate (PerkinElmer) in a total volume of 40 ul. Membranes were mixed with SPA beads.

Q: With B1 as the binder, how does the “Ratio hCT/hAmylin binding” value read?
A: 41.3

Q: Which “Ratio hCT/hAmylin binding” value does the source give for B2 here?
A: 47.5

Q: With B3 as the binder, how does the “Ratio hCT/hAmylin binding” value read?
A: 50.3

Q: B4 was tested. Which “Ratio hCT/hAmylin binding” value did it give?
A: 27.6

The binders below were run against T3, rat amylin receptor (rat calcitonin …) (assay: SPA competition vs 125I-rat amylin, membranes with rat CTR + rat RAMP3 (Assay VI)).

Q: For B1, which IC50 is on record?
A: 0.614 nM

Q: For B2, which IC50 is on record?
A: 0.295 nM

Q: For B3, which IC50 is on record?
A: 0.948 nM

Q: How did the IC50 turn out when B4 was run?
A: 1.3 nM

These binders were tested against T1, rat calcitonin receptor (assay: SPA competition vs 125I-calcitonin, membranes with rat CTR (Assay VIII)).

Q: For B1, which IC50 is on record?
A: 90.2 nM

Q: How did the IC50 turn out when B2 was run?
A: 108 nM

Q: Which IC50 does the source give for B3 here?
A: 61.7 nM

Q: B4 was tested. Which IC50 did it give?
A: 135 nM
